Results on 1 substance are retold here after patent publication US20110027909A1, “Chimera Compositions and Methods of Use” (priority 2009, published 2011).

Assay [1] concerns IGF-BP2_CRFR chimera. The experiment in a line: FLIPR intracellular calcium release, HEK-293 cells expressing IGF-BP2_CRFR2 chimera. The class given is cell-based, human. As to conditions: CRF 1 pM-10 μM, FIG. 13. The method, then:
The mammalian cells expressing the various isolated chimera constructs were tested for the ability of the chimera proteins to activate intracellular calcium release. The HEK-293 cells expressing the constructs of Example 9 were grown in 10% FBS in DMEM cell media with hygromycin (0.4%) selection reagent. The cells were plated out in 96-well plates (40 000 cells/well) in FBS/DMEM media. On the following day, cells were serum starved (1% FBS in DMEM; 100 μl/well) for 2 hours prior to testing.
The cells were loaded with diluted FLIPR™ dye (100 μl) for one hour prior to testing with CRF. The selected hygromycin resistant cells were plated in 96-well clear bottom black microplates at a density of approximately 40,000 cells/well, in DMEM/10% FBS media. […]
(§1) A FlexStation (Molecular Devices) fluorometric imaging plate reader was used to measure changes in intracellular Ca^2+. […] The machine was used in Flex mode, and the fluorescent intensity was measured from the bottom with the excitation at 485 nm and emission at 525 nm for 120 seconds at 21° C.
The results of the FLIPR experiments detecting the levels of intracellular calcium induced by activation of the chimeras with CRF are shown in FIG. 13. […] Results are expressed as the mean (±SEM) relative fluorescence units (RFU), calculated as agonist-induced maximum Ca^2+ peak/cell number×1000.

Assay [2] has as its target T1, CRF-BP(10 Kd)_CRFR2 chimera (Homo sapiens, UniProt P24387+Q13324).
T1 construct: The CRF-BP (10 Kd) fragment is comprised of 88 amino acid residues (A235 to L322); DNA encoding the CRFR2 protein was amplified using the ssHA CRFR2_Zeo plasmid DNA template; FLAG (N); expressed in transfected cells
T1 sequence (P24387+Q13324 with tags, fused parts or gaps): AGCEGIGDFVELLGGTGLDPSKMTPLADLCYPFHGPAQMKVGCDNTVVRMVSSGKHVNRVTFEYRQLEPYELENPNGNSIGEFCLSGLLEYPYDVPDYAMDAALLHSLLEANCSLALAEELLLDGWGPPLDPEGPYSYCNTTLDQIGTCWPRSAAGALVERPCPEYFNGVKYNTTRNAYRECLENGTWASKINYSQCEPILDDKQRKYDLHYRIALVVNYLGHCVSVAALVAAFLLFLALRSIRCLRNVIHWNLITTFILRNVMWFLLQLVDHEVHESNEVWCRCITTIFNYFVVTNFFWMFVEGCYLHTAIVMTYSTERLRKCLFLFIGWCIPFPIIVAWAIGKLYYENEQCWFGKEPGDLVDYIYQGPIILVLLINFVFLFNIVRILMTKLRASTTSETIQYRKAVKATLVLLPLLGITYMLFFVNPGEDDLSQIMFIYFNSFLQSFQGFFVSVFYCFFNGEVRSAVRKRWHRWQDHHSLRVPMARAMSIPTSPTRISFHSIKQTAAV
The experiment in a line: FLIPR intracellular calcium release, HEK 293 cells expressing CRF-BP(10 Kd)_CRFR2 chimera. The class given is cell-based. As for the experimental part:
(§2) The mammalian cells expressing the isolated chimera constructs were tested for the ability of the chimera proteins to activate intracellular calcium release via signaling through Gq. HEK 293 cells of Example 2 expressing the constructs of Example 1 were grown in 10% FBS in DMEM cell media with hygromycin (0.4%) selection reagent. Cells were plated out in 96-well plates (40 000 cells/well) in FBS/DMEM media. On the following day, cells were serum starved (1% FBS in DMEM; 100 μl/well) for 2 hours prior to testing.
(§3) Cells were loaded with diluted FLIPR™ dye (100 μl) for one hour prior to testing with CRF. The selected hygromycin resistant cells were plated in 96-well clear bottom black microplates at a density of approximately 40,000 cells/well, in DMEM/10% FBS media. […]
as §1
Results are expressed as the mean (±SEM) relative fluorescent units (RFUs), calculated as agonist-induced maximum Ca^2+ peak/cell number×1000.
Background: Calcium assays in cells follow changes in intracellular calcium, usually with a dye or a luminescent sensor.

Assay [3] deals with T2, CRF-BP_NK1R chimera (Homo sapiens, UniProt P24387+P25103).
T2 construct: the construct used to create a CRF-BP(FL)_NK1R chimera; FLAG (N); expressed in transfected cells
T2 sequence (P24387+P25103 fused, change not shown): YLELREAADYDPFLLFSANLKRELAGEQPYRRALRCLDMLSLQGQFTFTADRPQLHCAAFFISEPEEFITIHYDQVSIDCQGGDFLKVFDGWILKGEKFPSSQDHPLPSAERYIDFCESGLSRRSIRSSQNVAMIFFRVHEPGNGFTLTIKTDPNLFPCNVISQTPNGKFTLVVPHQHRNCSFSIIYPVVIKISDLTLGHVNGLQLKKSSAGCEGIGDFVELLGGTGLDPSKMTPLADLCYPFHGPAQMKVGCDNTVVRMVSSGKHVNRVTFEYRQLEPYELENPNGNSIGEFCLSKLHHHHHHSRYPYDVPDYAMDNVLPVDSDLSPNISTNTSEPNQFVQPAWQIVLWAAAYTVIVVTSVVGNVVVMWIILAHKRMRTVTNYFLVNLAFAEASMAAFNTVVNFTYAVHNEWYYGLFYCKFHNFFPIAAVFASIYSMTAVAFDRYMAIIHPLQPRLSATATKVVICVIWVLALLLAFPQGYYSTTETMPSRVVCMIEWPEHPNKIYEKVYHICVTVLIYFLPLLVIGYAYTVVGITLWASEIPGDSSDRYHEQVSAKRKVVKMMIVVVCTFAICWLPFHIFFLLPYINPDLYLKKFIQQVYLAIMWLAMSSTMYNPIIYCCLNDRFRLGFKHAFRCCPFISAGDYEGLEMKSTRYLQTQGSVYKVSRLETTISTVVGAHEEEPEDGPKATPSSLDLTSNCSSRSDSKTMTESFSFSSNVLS
In words: FLIPR intracellular calcium release, HEK-293 cells expressing CRF-BP_NK1R chimera. As to conditions: 1 pM-10 μM, FIGS. 9, 10. The class given is cell-based.
Procedure: The mammalian cells expressing the various isolated chimera constructs were tested for the ability of the chimera proteins to activate intracellular calcium release. The HEK-293 cells of Example 5 expressing the constructs of Example 4 were grown in 10% FBS in DMEM cell media with hygromycin (0.4%) as a selection reagent. Cells were plated out in 96-well plates (40 000 cells/well) in FBS/DMEM media. On the following day, cells were serum starved (1% FBS in DMEM; 100 μl/well) for 2 hours prior to testing.

Assay [4] concerns recombinant dopamine receptor. The experiment in a line: Negative control calcium release, HEK 293 cells expressing a recombinant dopamine receptor. The class given is cell-based. As to conditions: HEK 293 cells expressing recombinant dopamine receptor; FIG. 7. The method, then:
(§4) As a negative control, the effect of CRF on HEK 293 cells that had not been transfected or which expressed a recombinant dopamine receptor was measured.

For assay [5], the system named is untransfected HEK 293 cells. In words: Negative control calcium release, HEK 293 cells not transfected. The class given is cell-based, human. As to conditions: FIG. 7. As for the experimental part:
as §4

For assay [6], the target named is T3, CRF-BP(FL)_CRFR2 chimera (Homo sapiens, UniProt P24387+Q13324).
T3 construct: DNA encoding the CRFR2 protein was amplified using the ssHA CRFR2_Zeo plasmid DNA template; FLAG (N); expressed in transfected cells
T3 sequence (P24387+Q13324 with tags, fused parts or gaps): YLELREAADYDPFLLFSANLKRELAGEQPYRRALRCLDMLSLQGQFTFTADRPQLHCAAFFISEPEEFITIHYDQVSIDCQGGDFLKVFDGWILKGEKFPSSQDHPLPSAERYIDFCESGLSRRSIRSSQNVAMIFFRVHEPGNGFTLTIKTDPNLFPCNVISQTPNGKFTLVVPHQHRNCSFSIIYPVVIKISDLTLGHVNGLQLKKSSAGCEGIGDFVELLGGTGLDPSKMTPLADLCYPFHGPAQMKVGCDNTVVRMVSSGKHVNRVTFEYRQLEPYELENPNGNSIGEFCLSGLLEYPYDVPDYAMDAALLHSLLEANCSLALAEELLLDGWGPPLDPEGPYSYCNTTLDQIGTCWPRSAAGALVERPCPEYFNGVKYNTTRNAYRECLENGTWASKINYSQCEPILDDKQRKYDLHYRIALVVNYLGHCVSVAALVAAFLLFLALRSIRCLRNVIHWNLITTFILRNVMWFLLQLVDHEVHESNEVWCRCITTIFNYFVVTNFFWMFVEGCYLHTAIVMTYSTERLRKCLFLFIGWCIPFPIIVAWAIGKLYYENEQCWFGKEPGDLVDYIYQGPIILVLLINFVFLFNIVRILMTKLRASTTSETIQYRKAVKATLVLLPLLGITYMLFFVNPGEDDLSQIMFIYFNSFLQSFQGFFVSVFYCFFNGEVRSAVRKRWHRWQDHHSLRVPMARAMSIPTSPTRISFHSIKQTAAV
In words: FLIPR intracellular calcium release, agonist mode, HEK 293 cells expressing full-length CRF-BP_CRFR2 chimera. The class given is cell-based. As for the experimental part:
as §2, §3, §1
The results of the FLIPR experiments detecting the levels of intracellular calcium induced by activation of the chimera with CRF are shown in FIGS. 3-5. […] Results are expressed as the mean (±SEM) relative fluorescent units (RFU), calculated as agonist-induced maximum Ca^2+ peak/cell number×1000.

Setting [7] is: CRF, intracellular calcium release.

Turning to Corticotropin Releasing Factor [CRF], the “intracellular calcium release (RFU)” value is listed as “different levels of CRF-induced (1 pM-10 μM) intracellular calcium release in the HEK-293 cells corresponding to the concentration of CRF” in assay [1]; “even more robust signaling than the full-length CRF-BP_CRFR2 chimera” in assay [2] (CRF 1 pM-10 μM, compared with full-length chimera, FIG. 6); “different levels of CRF-induced (1 pM-10 μM) intracellular calcium release in the HEK-293 cells corresponding to the concentration of CRF” in assay [3]. Further, the “signaling through the chimera compared with CRFR2 alone” value in assay [2] (setting [7]) and in assay [6] (setting [7]) was “more effectively than CRF at CRFR2 alone” in each case. Moreover, the intracellular calcium signaling result in assay [4] and in assay [5] was “did not display any significant signaling” each time. In addition, the “intracellular calcium release (agonist-induced maximum Ca2+ peak, RFU)” value in assay [6] (1 pM-10 μM, HEK 293 cells, FIGS. 3-5) is on record as “increased as the concentration of CRF was increased”.
